Test results published in article PMC9482650, “Quantitative fragmentomics allow affinity mapping of interactomes” (Nature Communications, 2022).

T1: APBA3_1, O96018
T1 sequence (O96018 389-490, limits assumed, looked up): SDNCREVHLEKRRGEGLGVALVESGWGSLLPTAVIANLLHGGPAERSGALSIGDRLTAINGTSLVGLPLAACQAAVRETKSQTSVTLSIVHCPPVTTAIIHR

T2: RADIL, Q96JH8
T2 sequence (Q96JH8 971-1071, limits assumed, looked up): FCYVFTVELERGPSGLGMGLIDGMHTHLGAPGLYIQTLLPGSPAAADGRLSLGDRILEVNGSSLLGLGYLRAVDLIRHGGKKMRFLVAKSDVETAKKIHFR

T3: GRIP1_3, Q9Y3R0
T3 sequence (Q9Y3R0 247-346, limits assumed, looked up): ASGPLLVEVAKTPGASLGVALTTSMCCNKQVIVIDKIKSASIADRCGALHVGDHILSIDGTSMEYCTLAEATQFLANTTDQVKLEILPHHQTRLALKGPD

T4: PDZRN3_1, Q9UPQ7
T4 sequence (Q9UPQ7 244-349, limits assumed, looked up): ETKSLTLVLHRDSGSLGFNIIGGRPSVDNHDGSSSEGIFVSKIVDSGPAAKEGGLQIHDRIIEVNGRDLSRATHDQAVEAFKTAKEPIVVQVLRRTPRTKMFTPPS

T5: SNTB1, Q13884
T5 sequence (Q13884 107-205, limits assumed, looked up): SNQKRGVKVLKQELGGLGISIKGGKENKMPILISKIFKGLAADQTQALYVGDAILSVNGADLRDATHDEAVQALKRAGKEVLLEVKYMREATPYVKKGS

T6: TX1BP3, O14907
T6 sequence (O14907 10-122, limits assumed, looked up): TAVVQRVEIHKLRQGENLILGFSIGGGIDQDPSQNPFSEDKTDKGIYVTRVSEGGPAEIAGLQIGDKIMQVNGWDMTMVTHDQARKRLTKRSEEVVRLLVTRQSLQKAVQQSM

T7: GRIP1_5, Q9Y3R0
T7 sequence (Q9Y3R0 568-668, limits assumed, looked up): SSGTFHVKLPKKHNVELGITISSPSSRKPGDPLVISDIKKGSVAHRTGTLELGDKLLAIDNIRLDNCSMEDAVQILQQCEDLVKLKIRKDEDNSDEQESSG

T8: DFNB31_1, Q9P202
T8 sequence (Q9P202 135-233, limits assumed, looked up): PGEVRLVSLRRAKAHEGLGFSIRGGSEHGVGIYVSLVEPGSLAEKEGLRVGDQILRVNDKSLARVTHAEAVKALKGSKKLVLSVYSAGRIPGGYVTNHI

B1: SCN4B, Q8IWT1 (peptide)
chain: KAEEKPPSKV
B2: CD46, P15529 (peptide)
chain: THREVKFTSL

The binders below were run against SCRIB_3, Q14160 (assay: holdup assay). Conditions: plain residues with an end cap or a label only (N-terminal biotin on a linker: ado-ado).
SCRIB_3, Q14160, sequence (Q14160 999-1103): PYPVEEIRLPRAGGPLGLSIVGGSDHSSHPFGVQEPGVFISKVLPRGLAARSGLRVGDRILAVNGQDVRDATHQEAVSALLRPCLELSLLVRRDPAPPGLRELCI
Parameters: key: below the threshold = too weak to quantify, mostly under pKd 3.1 to 4

Binder	pKd
B1	below the threshold
B2	4.8

Each binder was assayed against T1, APBA3_1, O96018 (assay: holdup assay). Conditions: plain residues with an end cap or a label only (N-terminal biotin on a linker: ado-ado).
Parameters: key: below the threshold = too weak to quantify, mostly under pKd 3.1 to 4

Binder	pKd
B1	below the threshold
B2	below the threshold

What follows are binders tested against GRIP2_4, Q9C0E4 (assay: holdup assay). Conditions: plain residues with an end cap or a label only (N-terminal biotin on a linker: ado-ado).
GRIP2_4, Q9C0E4, sequence (Q9C0E4 446-548): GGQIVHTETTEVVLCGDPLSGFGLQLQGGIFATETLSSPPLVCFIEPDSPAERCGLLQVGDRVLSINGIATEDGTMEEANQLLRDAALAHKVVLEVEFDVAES
Parameters: key: below the threshold = too weak to quantify, mostly under pKd 3.1 to 4

Binder	pKd
B1	below the threshold
B2	below the threshold

The binders below were run against PDZRN4_1, Q6ZMN7 (assay: holdup assay). Conditions: plain residues with an end cap or a label only (N-terminal biotin on a linker: ado-ado).
PDZRN4_1, Q6ZMN7, sequence (Q6ZMN7 213-318): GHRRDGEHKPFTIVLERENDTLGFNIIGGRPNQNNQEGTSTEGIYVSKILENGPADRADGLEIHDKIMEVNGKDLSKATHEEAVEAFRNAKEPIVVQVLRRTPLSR
Parameters: key: below the threshold = too weak to quantify, mostly under pKd 3.1 to 4

Binder	pKd
B1	below the threshold
B2	4.57

These binders were tested against PICK1, Q9NRD5 (assay: holdup assay). Conditions: plain residues with an end cap or a label only (N-terminal biotin on a linker: ado-ado).
PICK1, Q9NRD5, sequence (Q9NRD5 17-115): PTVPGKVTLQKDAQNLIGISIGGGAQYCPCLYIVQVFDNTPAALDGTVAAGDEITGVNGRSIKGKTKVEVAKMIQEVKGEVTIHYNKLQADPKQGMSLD
Parameters: key: below the threshold = too weak to quantify, mostly under pKd 3.1 to 4

Binder	pKd
B1	4.21
B2	4.08

Each binder was assayed against LNX1_3, Q8TBB1 (assay: holdup assay). Conditions: plain residues with an end cap or a label only (N-terminal biotin on a linker: ado-ado).
LNX1_3, Q8TBB1, sequence (Q8TBB1 500-596): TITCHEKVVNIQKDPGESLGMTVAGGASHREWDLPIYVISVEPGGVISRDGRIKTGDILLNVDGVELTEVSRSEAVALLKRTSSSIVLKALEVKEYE
Parameters: key: below the threshold = too weak to quantify, mostly under pKd 3.1 to 4

Binder	pKd
B1	below the threshold
B2	below the threshold

These binders were tested against LNX1_1, Q8TBB1 (assay: holdup assay). Conditions: plain residues with an end cap or a label only (N-terminal biotin on a linker: ado-ado).
LNX1_1, Q8TBB1, sequence (Q8TBB1 261-371): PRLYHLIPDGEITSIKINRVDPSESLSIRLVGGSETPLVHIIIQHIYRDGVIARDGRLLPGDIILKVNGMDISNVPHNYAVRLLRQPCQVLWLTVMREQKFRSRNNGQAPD
Parameters: key: below the threshold = too weak to quantify, mostly under pKd 3.1 to 4

Binder	pKd
B1	3.49
B2	3.5

The binders below were run against Inadl_1, Q8NI35 (assay: holdup assay). Conditions: plain residues with an end cap or a label only (N-terminal biotin on a linker: ado-ado).
Inadl_1, Q8NI35, sequence (Q8NI35 113-229): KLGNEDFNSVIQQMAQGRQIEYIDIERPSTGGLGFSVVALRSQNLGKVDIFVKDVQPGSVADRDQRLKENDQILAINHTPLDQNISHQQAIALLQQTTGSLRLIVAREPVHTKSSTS
Parameters: key: below the threshold = too weak to quantify, mostly under pKd 3.1 to 4

Binder	pKd
B1	below the threshold
B2	below the threshold

What follows are binders tested against GIPC2, Q8TF65 (assay: holdup assay). Conditions: plain residues with an end cap or a label only (N-terminal biotin on a linker: ado-ado).
GIPC2, Q8TF65, sequence (Q8TF65 112-203): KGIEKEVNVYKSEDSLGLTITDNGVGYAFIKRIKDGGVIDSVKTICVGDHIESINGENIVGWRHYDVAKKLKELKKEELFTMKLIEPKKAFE
Parameters: key: below the threshold = too weak to quantify, mostly under pKd 3.1 to 4

Binder	pKd
B1	below the threshold
B2	below the threshold

Each binder was assayed against DLG5_1, Q8TDM6 (assay: holdup assay). Conditions: plain residues with an end cap or a label only (N-terminal biotin on a linker: ado-ado).
DLG5_1, Q8TDM6, sequence (Q8TDM6 617-713): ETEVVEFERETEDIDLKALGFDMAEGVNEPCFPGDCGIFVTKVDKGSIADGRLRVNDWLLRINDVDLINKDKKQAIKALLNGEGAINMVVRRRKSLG
Parameters: key: below the threshold = too weak to quantify, mostly under pKd 3.1 to 4

Binder	pKd
B1	below the threshold
B2	below the threshold

Each binder was assayed against IL16_4, Q14005 (assay: holdup assay). Conditions: plain residues with an end cap or a label only (N-terminal biotin on a linker: ado-ado).
IL16_4, Q14005, sequence (Q14005 1229-1329): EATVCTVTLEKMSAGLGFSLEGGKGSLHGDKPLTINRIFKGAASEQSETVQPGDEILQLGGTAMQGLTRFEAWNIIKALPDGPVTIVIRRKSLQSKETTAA
Parameters: key: below the threshold = too weak to quantify, mostly under pKd 3.1 to 4

Binder	pKd
B1	3.65
B2	3.88

The binders below were run against MAGI1_2, Q96QZ7 (assay: holdup assay). Conditions: plain residues with an end cap or a label only (N-terminal biotin on a linker: ado-ado).
MAGI1_2, Q96QZ7, sequence (Q96QZ7 456-580): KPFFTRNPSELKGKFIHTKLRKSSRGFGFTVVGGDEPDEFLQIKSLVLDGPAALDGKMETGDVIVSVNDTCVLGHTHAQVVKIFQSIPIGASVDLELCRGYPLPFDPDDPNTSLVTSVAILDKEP
Parameters: key: below the threshold = too weak to quantify, mostly under pKd 3.1 to 4

Binder	pKd
B1	below the threshold
B2	3.81

The binders below were run against T2, RADIL, Q96JH8 (assay: holdup assay). Conditions: plain residues with an end cap or a label only (N-terminal biotin on a linker: ado-ado).
Parameters: key: below the threshold = too weak to quantify, mostly under pKd 3.1 to 4

Binder	pKd
B1	below the threshold
B2	3.49

What follows are binders tested against SNX27, Q96L92 (assay: holdup assay). Conditions: plain residues with an end cap or a label only (N-terminal biotin on a linker: ado-ado).
Parameters: key: below the threshold = too weak to quantify, mostly under pKd 3.1 to 4

Binder	pKd
B1	below the threshold
B2	4.35

These binders were tested against T3, GRIP1_3, Q9Y3R0 (assay: holdup assay). Conditions: plain residues with an end cap or a label only (N-terminal biotin on a linker: ado-ado).
Parameters: key: below the threshold = too weak to quantify, mostly under pKd 3.1 to 4

Binder	pKd
B1	below the threshold
B2	below the threshold

Each binder was assayed against T4, PDZRN3_1, Q9UPQ7 (assay: holdup assay). Conditions: plain residues with an end cap or a label only (N-terminal biotin on a linker: ado-ado).
Parameters: key: below the threshold = too weak to quantify, mostly under pKd 3.1 to 4

Binder	pKd
B1	below the threshold
B2	4.27

The binders below were run against MAGI2_6, Q86UL8 (assay: holdup assay). Conditions: plain residues with an end cap or a label only (N-terminal biotin on a linker: ado-ado).
MAGI2_6, Q86UL8, sequence (Q86UL8 1141-1229): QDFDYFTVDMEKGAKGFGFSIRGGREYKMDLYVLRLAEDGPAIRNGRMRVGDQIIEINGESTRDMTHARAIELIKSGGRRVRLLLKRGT
Parameters: key: below the threshold = too weak to quantify, mostly under pKd 3.1 to 4

Binder	pKd
B1	below the threshold
B2	4.59

What follows are binders tested against T5, SNTB1, Q13884 (assay: holdup assay). Conditions: plain residues with an end cap or a label only (N-terminal biotin on a linker: ado-ado).
Parameters: key: below the threshold = too weak to quantify, mostly under pKd 3.1 to 4

Binder	pKd
B1	below the threshold
B2	4.86

Each binder was assayed against DLG4_3, P78352 (assay: holdup assay). Conditions: plain residues with an end cap or a label only (N-terminal biotin on a linker: ado-ado).
DLG4_3, P78352, sequence (P78352 306-403): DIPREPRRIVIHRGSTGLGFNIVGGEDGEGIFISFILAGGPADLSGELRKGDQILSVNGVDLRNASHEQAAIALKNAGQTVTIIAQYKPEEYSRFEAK
Parameters: key: below the threshold = too weak to quantify, mostly under pKd 3.1 to 4

Binder	pKd
B1	below the threshold
B2	4.3

What follows are binders tested against LNX1_2, Q8TBB1 (assay: holdup assay). Conditions: plain residues with an end cap or a label only (N-terminal biotin on a linker: ado-ado).
LNX1_2, Q8TBB1, sequence (Q8TBB1 371-470): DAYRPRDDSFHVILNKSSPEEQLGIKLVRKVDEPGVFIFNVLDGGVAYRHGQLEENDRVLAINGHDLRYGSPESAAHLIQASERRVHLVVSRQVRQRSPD
Parameters: key: below the threshold = too weak to quantify, mostly under pKd 3.1 to 4

Binder	pKd
B1	below the threshold
B2	below the threshold

Each binder was assayed against MAGI1_1, Q96QZ7 (assay: holdup assay). Conditions: plain residues with an end cap or a label only (N-terminal biotin on a linker: ado-ado).
MAGI1_1, Q96QZ7, sequence (Q96QZ7 1-106): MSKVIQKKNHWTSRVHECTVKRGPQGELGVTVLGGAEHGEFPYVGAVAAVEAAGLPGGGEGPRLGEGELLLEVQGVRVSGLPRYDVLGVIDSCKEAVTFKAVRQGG
Parameters: key: below the threshold = too weak to quantify, mostly under pKd 3.1 to 4

Binder	pKd
B1	below the threshold
B2	below the threshold

These binders were tested against Inadl_6, Q8NI35 (assay: holdup assay). Conditions: plain residues with an end cap or a label only (N-terminal biotin on a linker: ado-ado).
Inadl_6, Q8NI35, sequence (Q8NI35 1058-1167): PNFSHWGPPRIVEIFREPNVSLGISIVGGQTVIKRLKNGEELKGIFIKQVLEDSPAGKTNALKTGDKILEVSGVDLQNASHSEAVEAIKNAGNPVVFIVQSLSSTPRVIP
Parameters: key: below the threshold = too weak to quantify, mostly under pKd 3.1 to 4

Binder	pKd
B1	below the threshold
B2	3.7

What follows are binders tested against T6, TX1BP3, O14907 (assay: holdup assay). Conditions: plain residues with an end cap or a label only (N-terminal biotin on a linker: ado-ado).
Parameters: key: below the threshold = too weak to quantify, mostly under pKd 3.1 to 4

Binder	pKd
B1	below the threshold
B2	4.37

These binders were tested against T7, GRIP1_5, Q9Y3R0 (assay: holdup assay). Conditions: plain residues with an end cap or a label only (N-terminal biotin on a linker: ado-ado).
Parameters: key: below the threshold = too weak to quantify, mostly under pKd 3.1 to 4

Binder	pKd
B1	below the threshold
B2	below the threshold

These binders were tested against GORASP1, Q9BQQ3 (assay: holdup assay). Conditions: plain residues with an end cap or a label only (N-terminal biotin on a linker: ado-ado).
GORASP1, Q9BQQ3, sequence (Q9BQQ3 1-208): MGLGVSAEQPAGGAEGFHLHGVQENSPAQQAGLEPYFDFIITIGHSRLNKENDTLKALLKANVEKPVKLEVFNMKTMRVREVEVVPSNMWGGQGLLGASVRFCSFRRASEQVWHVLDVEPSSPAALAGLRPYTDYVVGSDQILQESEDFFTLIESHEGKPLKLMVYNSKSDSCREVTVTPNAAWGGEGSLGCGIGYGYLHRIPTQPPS
Parameters: key: below the threshold = too weak to quantify, mostly under pKd 3.1 to 4

Binder	pKd
B1	below the threshold
B2	below the threshold

What follows are binders tested against T8, DFNB31_1, Q9P202 (assay: holdup assay). Conditions: plain residues with an end cap or a label only (N-terminal biotin on a linker: ado-ado).
Parameters: key: below the threshold = too weak to quantify, mostly under pKd 3.1 to 4

Binder	pKd
B1	3.57
B2	3.82

The binders below were run against FRMPD4, Q14CM0 (assay: holdup assay). Conditions: plain residues with an end cap or a label only (N-terminal biotin on a linker: ado-ado).
FRMPD4, Q14CM0, sequence (Q14CM0 67-160): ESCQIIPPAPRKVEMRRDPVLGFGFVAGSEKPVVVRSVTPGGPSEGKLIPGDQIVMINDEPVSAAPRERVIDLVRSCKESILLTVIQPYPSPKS
Parameters: key: below the threshold = too weak to quantify, mostly under pKd 3.1 to 4

Binder	pKd
B1	below the threshold
B2	4.16

The binders below were run against MAGI2_5, Q86UL8 (assay: holdup assay). Conditions: plain residues with an end cap or a label only (N-terminal biotin on a linker: ado-ado).
MAGI2_5, Q86UL8, sequence (Q86UL8 915-1017): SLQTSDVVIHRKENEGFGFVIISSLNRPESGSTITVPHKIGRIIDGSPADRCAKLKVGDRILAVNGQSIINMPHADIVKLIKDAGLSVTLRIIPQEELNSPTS
Parameters: key: below the threshold = too weak to quantify, mostly under pKd 3.1 to 4

Binder	pKd
B1	3.51
B2	3.84

The binders below were run against GRIP2_7, Q9C0E4 (assay: holdup assay). Conditions: plain residues with an end cap or a label only (N-terminal biotin on a linker: ado-ado).
GRIP2_7, Q9C0E4, sequence (Q9C0E4 934-1023): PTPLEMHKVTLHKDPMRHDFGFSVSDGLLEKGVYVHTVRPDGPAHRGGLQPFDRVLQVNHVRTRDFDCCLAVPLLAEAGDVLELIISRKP
Parameters: key: below the threshold = too weak to quantify, mostly under pKd 3.1 to 4

Binder	pKd
B1	below the threshold
B2	below the threshold
